Reference: article PMC7721705, “The G protein coupled receptor CXCR4 designed by the QTY code becomes more hydrophilic and retains cell signaling activity” (Scientific Reports, 2020)

Molecular target: the molecule itself
Assay: dimer bands on SDS-PAGE (Western blot with rho1D4 antibody, silver stain); immunoaffinity-purified receptors in 0.01% or 0.2% detergent; Novex 10% Bis-Tris gels, samples kept at room temperature 10 min, not boiled

B1: CXCR4^QTY29 with C-terminal GSSG linker and rho1D4 tag (receptor, UniProt P61073 1-352, looked up)
chain: MEGISIYTSDNYTEEMGSGDYDSMKEPCFREENANYNKTFLPTIYSIIYQTGTVGNGLVILVMGYQKKLRSMTDKYRLHLSTADLQFVTTLPYWATDATANWYFGNFLCKAVHVIYTVNLYSSVLILAFISLDRYLAIVHATNSQRPRKLLAEKVVYVGVWTPAQLLTTPDYTFANVSEADDRYICDRFYPNDLWVVVFQFQHIMVGLILPGIVILSCYCIIISKLSHSKGHQKRKALKTTTTLIQAFFACWQPYYTGISIDSYILLEIIKQGCEFENTVHKWISTTEAQAFYHCCTNPTQYAYLGAKFKTSAQHALTSVSRGSSLKILSKGKRGGHSSVSTESESSSFHSS
notes: CXCR4, UniProt P61073, with 29 QTY replacements of lipid-facing transmembrane residues; also called QTY variant; source: E. coli cell-free reaction mix (pIVex2.3) with Brij-35; captured from crude supernatant (SPR); not shown: rho1D4 tag (after a GSSG linker), C-terminal, kept
B1: binds.
